Results on 15 molecules are retold here after patent US20250188189A1 (published 2025).

The chains are these.
T1: plasma-derived human activated protein C (APC) (UniProt P04070 43-461)
T1 chain: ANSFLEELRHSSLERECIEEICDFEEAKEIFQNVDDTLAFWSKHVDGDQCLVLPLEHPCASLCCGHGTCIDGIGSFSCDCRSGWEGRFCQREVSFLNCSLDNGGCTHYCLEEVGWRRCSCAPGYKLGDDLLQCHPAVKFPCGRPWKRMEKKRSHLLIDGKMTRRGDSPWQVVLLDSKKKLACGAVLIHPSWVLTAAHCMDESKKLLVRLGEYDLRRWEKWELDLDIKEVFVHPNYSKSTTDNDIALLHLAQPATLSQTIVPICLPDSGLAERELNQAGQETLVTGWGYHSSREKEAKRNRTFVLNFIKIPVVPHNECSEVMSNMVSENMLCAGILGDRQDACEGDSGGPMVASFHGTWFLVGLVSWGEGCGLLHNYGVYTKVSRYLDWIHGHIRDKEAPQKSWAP

B1: TPP-29845 (antibody, V domains shown)
VH: EVQLVESGGGLVQPGGSLRLSCAASGFTFSNFYMNWVRQAPGKGLEWVSYISSSSSTIYYADSVKGRFTISRDDSKNSLYLQMNSLKTEDTAVYYCAREGDYFDYWGQGTLVTVSS
VL: EIVLTQSPGTLSLSPGERATLSCRASQSVSSFGATFMHWYQQKPGQPPKLLIYLASNRASGVPDRFSGSGSGTDFTLKISRVEAEDVGVYYCQQNNEDPYTFGQGTKLEIKR
B2: TPP-26939 (antibody, V domains shown)
VH: EVQLVESGGGLVQPGGSLRLSCAASGFTFSNYYINWVRQAPGKGLEWVGDIRLKSNNYEKHYAESVKGRFTISRDDSKNSLYLQMNSLKTEDTAVYYCAREGDYFDYWGQGTLVTVSS
VL: DIVLTQSPASLAVSPGQRATITCKASQSVSSFGATFMHWYQQKPGQPPKLLIYLASNRASGVPDRFSGSGSGTDFTLKISRVEAEDVGVYYCQQNNEDPYTFGQGTKLEIKR
B3: TPP-29852 (antibody, V domains shown)
VH: EVQLVESGGGLVQPGGSLRLSCAASGFTFSFYYMNWVRQAPGKGLEWVSYISSSSSTIYYADSVKGRFTISRDDSKNSLYLQMNSLKTEDTAVYYCAREGDYFDYWGQGTLVTVSS
VL: EIVLTQSPGTLSLSPGERATLSCRASQSVSSFGATFMHWYQQKPGQPPKLLIYLASNRASGVPDRFSGSGSGTDFTLKISRVEAEDVGVYYCQQNNEDPYTFGQGTKLEIKR
B4: TPP-29857 (antibody, V domains shown)
VH: EVQLVESGGGLVQPGGSLRLSCAASGFTFSNYYMNWVRQAPGKGLEWVSYISSSSSTIYYADSVKGRFTISRDDSKNSLYLQMNSLKTEDTAVYYCAREGDYFDYWGQGTLVTVSS
VL: EIVLTQSPGTLSLSPGERATLSCRASQSVSSFGATFMHWYQQKPGQPPKLLIYLASNRASGVPDRFSGSGSGTDFTLKISRVEAEDVGVYYCQQNNEDPWTFGQGTKLEIKR
B5: TPP-29854 (antibody, V domains shown)
VH: EVQLVESGGGLVQPGGSLRLSCAASGFTFSNYYMNWVRQAPGKGLEWVSYISSSSSTIYYADSVKGRFTISRDDSKNSLYLQMNSLKTEDTAVYYCAREGDYFDYWGQGTLVTVSS
VL: EIVLTQSPGTLSLSPGERATLSCRASQSVSSFGATFMHWYQQKPGQPPKLLIYLKSNRASGVPDRFSGSGSGTDFTLKISRVEAEDVGVYYCQQNNEDPYTFGQGTKLEIKR
B6: TPP-29847 (antibody, V domains shown)
VH: EVQLVESGGGLVQPGGSLRLSCAASGFTFSNYYMNWVRQAPGKGLEWVSYISSSSSTIYYADSVKGRFTISRDDSKNSLYLQMNSLKTEDTAVYYCAREGDYFDYWGQGTLVTVSS
VL: EIVLTQSPGTLSLSPGERATLSCRASQSVSSFGATFMHWYQQKPGQPPKLLIYLASNRASGVPDRFSGSGSGTDFTLKISRVEAEDVGVYYCQQNNEDPFTFGQGTKLEIKR
B7: TPP-29856 (antibody, V domains shown)
VH: EVQLVESGGGLVQPGGSLRLSCAASGFTFSNYYMNWVRQAPGKGLEWVSYISSSSSTIYYADSVKGRFTISRDDSKNSLYLQMNSLKTEDTAVYYCAREGDYFDYWGQGTLVTVSS
VL: EIVLTQSPGTLSLSPGERATLSCRASQSVSSFGATFMHWYQQKPGQPPKLLIYLASHRASGVPDRFSGSGSGTDFTLKISRVEAEDVGVYYCQQNNEDPYTFGQGTKLEIKR
B8: TPP-29844 (antibody, V domains shown)
VH: EVQLVESGGGLVQPGGSLRLSCAASGFTFSIYYMNWVRQAPGKGLEWVSYISSSSSTIYYADSVKGRFTISRDDSKNSLYLQMNSLKTEDTAVYYCAREGDYFDYWGQGTLVTVSS
VL: EIVLTQSPGTLSLSPGERATLSCRASQSVSSFGATFMHWYQQKPGQPPKLLIYLASNRASGVPDRFSGSGSGTDFTLKISRVEAEDVGVYYCQQNNEDPYTFGQGTKLEIKR
B9: TPP-29860 (antibody, V domains shown)
VH: EVQLVESGGGLVQPGGSLRLSCAASGFTFSNYYMNWVRQAPGKGLEWVSYISSSSSTIYYADSVKGRFTISRDDSKNSLYLQMNSLKTEDTAVYYCAREGDYFDYWGQGTLVTVSS
VL: EIVLTQSPGTLSLSPGERATLSCRASQSVSSFGATFMHWYQQKPGQPPKLLIYLASNRASGVPDRFSGSGSGTDFTLKISRVEAEDVGVYYCTQNNEDPYTFGQGTKLEIKR
B10: TPP-29848 (antibody, V domains shown)
VH: EVQLVESGGGLVQPGGSLRLSCAASGFTFSNYYMNWVRQAPGKGLEWVSYISSSSSTIYYADSVKGRFTISRDDSKNSLYLQMNSLKTEDTAVYYCAREGDYFDYWGQGTLVTVSS
VL: EIVLTQSPGTLSLSPGERATLSCRASESVSSFGATFMHWYQQKPGQPPKLLIYLASNRASGVPDRFSGSGSGTDFTLKISRVEAEDVGVYYCQQNNEDPYTFGQGTKLEIKR
B11: TPP-29861 (antibody, V domains shown)
VH: EVQLVESGGGLVQPGGSLRLSCAASGFTFSNYYMNWVRQAPGKGLEWVSYISSSSRTIYYADSVKGRFTISRDDSKNSLYLQMNSLKTEDTAVYYCAREGDYFDYWGQGTLVTVSS
VL: EIVLTQSPGTLSLSPGERATLSCRASQSVSSFGATFMHWYQQKPGQPPKLLIYLASNRASGVPDRFSGSGSGTDFTLKISRVEAEDVGVYYCQQNNEDPYTFGQGTKLEIKR
B12: TPP-29846 (antibody, V domains shown)
VH: EVQLVESGGGLVQPGGSLRLSCAASGFTFSPYYMNWVRQAPGKGLEWVSYISSSSSTIYYADSVKGRFTISRDDSKNSLYLQMNSLKTEDTAVYYCAREGDYFDYWGQGTLVTVSS
VL: EIVLTQSPGTLSLSPGERATLSCRASQSVSSFGATFMHWYQQKPGQPPKLLIYLASNRASGVPDRFSGSGSGTDFTLKISRVEAEDVGVYYCQQNNEDPYTFGQGTKLEIKR
B13: TPP-29849 (antibody, V domains shown)
VH: EVQLVESGGGLVQPGGSLRLSCAASGFTFSNYYMNWVRQAPGKGLEWVSYISSSSSTIYYADSVKGRFTISRDDSKNSLYLQMNSLKTEDTAVYYCAREGDYFDYWGQGTLVTVSS
VL: EIVLTQSPGTLSLSPGERATLSCRASQSVSSFGATFMHWYQQKPGQPPKLLIYLAWNRASGVPDRFSGSGSGTDFTLKISRVEAEDVGVYYCQQNNEDPYTFGQGTKLEIKR
B14: TPP-29843 (antibody, V domains shown)
VH: EVQLVESGGGLVQPGGSLRLSCAASGFTFSNYYMNWVRQAPGKGLEWVSYISTSSSTIYYADSVKGRFTISRDDSKNSLYLQMNSLKTEDTAVYYCAREGDYFDYWGQGTLVTVSS
VL: EIVLTQSPGTLSLSPGERATLSCRASQSVSSFGATFMHWYQQKPGQPPKLLIYLASNRASGVPDRFSGSGSGTDFTLKISRVEAEDVGVYYCQQNNEDPYTFGQGTKLEIKR
B15: TPP-29855 (antibody, V domains shown)
VH: EVQLVESGGGLVQPGGSLRLSCAASGFTFSNYYMNWVRQAPGKGLEWVSYISSRSSTIYYADSVKGRFTISRDDSKNSLYLQMNSLKTEDTAVYYCAREGDYFDYWGQGTLVTVSS
VL: EIVLTQSPGTLSLSPGERATLSCRASQSVSSFGATFMHWYQQKPGQPPKLLIYLASNRASGVPDRFSGSGSGTDFTLKISRVEAEDVGVYYCQQNNEDPYTFGQGTKLEIKR

The test concerns the target T1, plasma-derived human activated protein …. Kind of test: SPR; head prints nM; kd/ka gives M.
As a reminder, the Kd is the free concentration of one partner at which half of the binding sites on the other are occupied at equilibrium, for simple one-to-one binding. The low end stands for higher affinity, the high end for lower affinity. Molecule B1 had a Kd of 10.7 nM. The same measure for B2: 52.1 nM; for B3: 1.18 nM; for B4: 13.3 nM. The molecule B5 gave a dissociation constant (Kd) of 25.2 nM. As for B6, the figure is 8.33 nM.

B7 showed a Kd of 21.3 nM. The same measure for B8: 10.1 nM; for B9: 23.9 nM. As for B10, the figure is 16.2 nM; as for B11, 11.3 nM. Take B12: the Kd was found to be 6.37 nM. Turning to B13, the Kd was 10.2 nM. On to B14, for which the Kd amounted to 22.3 nM. The same measure for B15: 26.1 nM.
